In the Human Domainome abundance scans (Beltran et al. 2025):
± gives the uncertainty stated by the source.

Experiment: abundance fitness (aPCA) (normalised: wild type 0, dead -1); higher = more abundant; growth selection in yeast, the domain comes from the species named
Details: Homo sapiens

Substance	abundance fitness
BAG family molecular chaperone regulator 3 W26D, O95817	-0.621 ± 0.37
BAG family molecular chaperone regulator 3 G17I, O95817	0.73 ± 0.092
BAG family molecular chaperone regulator 3 S14I, O95817	0.059 ± 0.23
BAG family molecular chaperone regulator 3 P24A, O95817	-0.464 ± 0.096
SAFB-like transcription modulator D40T, Q9NWH9	-0.375 ± 0.049
BAG family molecular chaperone regulator 3 W36A, O95817	0.844 ± 0.49
SAFB-like transcription modulator E67N, Q9NWH9	-0.002 ± 0.069
BAG family molecular chaperone regulator 3 P23L, O95817	-0.858 ± 0.2
SAFB-like transcription modulator T46N, Q9NWH9	0.103 ± 0.093
SAFB-like transcription modulator D64I, Q9NWH9	-0.28 ± 0.072
SAFB-like transcription modulator I66H, Q9NWH9	-0.226 ± 0.12
BAG family molecular chaperone regulator 3 P52D, O95817	-0.542 ± 0.42
SAFB-like transcription modulator N65D, Q9NWH9	-0.186 ± 0.082
SAFB-like transcription modulator T23A, Q9NWH9	-0.063 ± 0.035
BAG family molecular chaperone regulator 3 N16R, O95817	0.231 ± 0.065
BAG family molecular chaperone regulator 3 Q33W, O95817	-0.384 ± 0.081
SAFB-like transcription modulator I28K, Q9NWH9	-0.22 ± 0.22
BAG family molecular chaperone regulator 3 L22C, O95817	0.225 ± 0.16
BAG family molecular chaperone regulator 3 P55K, O95817	-0.094 ± 0.12
SAFB-like transcription modulator Q54M, Q9NWH9	-0.009 ± 0.1
SAFB-like transcription modulator T46P, Q9NWH9	0.037 ± 0.071
SAFB-like transcription modulator V47S, Q9NWH9	-0.152 ± 0.048
SAFB-like transcription modulator V47D, Q9NWH9	-0.001 ± 0.065
BAG family molecular chaperone regulator 3 G35M, O95817	-0.158 ± 0.16
SAFB-like transcription modulator K21Y, Q9NWH9	-0.667 ± 0.076

Substance	abundance fitness
SAFB-like transcription modulator L39R, Q9NWH9	-0.296 ± 0.05
BAG family molecular chaperone regulator 3 W49G, O95817	-0.748 ± 0.15
BAG family molecular chaperone regulator 3 S14D, O95817	0.102 ± 0.14
BAG family molecular chaperone regulator 3 S44L, O95817	-0.246 ± 0.17
BAG family molecular chaperone regulator 3 D18E, O95817	-0.058 ± 0.074
BAG family molecular chaperone regulator 3 D31K, O95817	-0.477 ± 0.28
SAFB-like transcription modulator E58W, Q9NWH9	-0.52 ± 0.076
BAG family molecular chaperone regulator 3 P24M, O95817	-0.662 ± 0.21
SAFB-like transcription modulator N38M, Q9NWH9	-0.192 ± 0.057
SAFB-like transcription modulator D40K, Q9NWH9	-0.322 ± 0.099
BAG family molecular chaperone regulator 3 R45K, O95817	-0.043 ± 0.077
SAFB-like transcription modulator I49R, Q9NWH9	-0.148 ± 0.054
SAFB-like transcription modulator E33T, Q9NWH9	-1.08 ± 0.17
SAFB-like transcription modulator I28V, Q9NWH9	0.01 ± 0.069
BAG family molecular chaperone regulator 3 I30G, O95817	-0.44 ± 0.087
BAG family molecular chaperone regulator 3 V40Q, O95817	-0.642 ± 0.13
SAFB-like transcription modulator T23P, Q9NWH9	-0.339 ± 0.031
BAG family molecular chaperone regulator 3 P37K, O95817	0.937 ± 0.12
BAG family molecular chaperone regulator 3 F38R, O95817	-0.149 ± 0.1
SAFB-like transcription modulator E58A, Q9NWH9	-0.026 ± 0.06
BAG family molecular chaperone regulator 3 F39P, O95817	-0.639 ± 0.19
SAFB-like transcription modulator P63V, Q9NWH9	-0.09 ± 0.034
SAFB-like transcription modulator K45V, Q9NWH9	-0.399 ± 0.052
SAFB-like transcription modulator P63F, Q9NWH9	-0.257 ± 0.045
BAG family molecular chaperone regulator 3 R53V, O95817	-0.715 ± 0.22

Substance	abundance fitness
BAG family molecular chaperone regulator 3 V12R, O95817	-0.594 ± 0.21
SAFB-like transcription modulator L34I, Q9NWH9	-1 ± 0.31
SAFB-like transcription modulator T46C, Q9NWH9	0.066 ± 0.074
SAFB-like transcription modulator S32A, Q9NWH9	-0.147 ± 0.062
BAG family molecular chaperone regulator 3 V54Y, O95817	-0.376 ± 0.25
SAFB-like transcription modulator I56Y, Q9NWH9	-0.419 ± 0.16
SAFB-like transcription modulator K45M, Q9NWH9	-0.325 ± 0.076
BAG family molecular chaperone regulator 3 R45S, O95817	-0.354 ± 0.084
BAG family molecular chaperone regulator 3 W26I, O95817	-0.608 ± 0.34
SAFB-like transcription modulator T42G, Q9NWH9	-0.247 ± 0.085
BAG family molecular chaperone regulator 3 W26Y, O95817	-0.326 ± 0.48
BAG family molecular chaperone regulator 3 N16K, O95817	1.04 ± 0.12
BAG family molecular chaperone regulator 3 P55M, O95817	-0.356 ± 0.2
SAFB-like transcription modulator S32L, Q9NWH9	-0.024 ± 0.04
BAG family molecular chaperone regulator 3 S56F, O95817	-0.205 ± 0.13
BAG family molecular chaperone regulator 3 G15N, O95817	1.04 ± 0.089
SAFB-like transcription modulator L25R, Q9NWH9	-0.663 ± 0.05
SAFB-like transcription modulator I22D, Q9NWH9	-0.464 ± 0.087
BAG family molecular chaperone regulator 3 G17C, O95817	0.731 ± 0.11
BAG family molecular chaperone regulator 3 P52K, O95817	-0.039 ± 0.22
SAFB-like transcription modulator I41G, Q9NWH9	-0.158 ± 0.064
BAG family molecular chaperone regulator 3 G17N, O95817	0.913 ± 0.13
BAG family molecular chaperone regulator 3 H42M, O95817	-0.37 ± 0.11
BAG family molecular chaperone regulator 3 Q33E, O95817	0.11 ± 0.064
SAFB-like transcription modulator S32C, Q9NWH9	-0.309 ± 0.067

Substance	abundance fitness
BAG family molecular chaperone regulator 3 D31M, O95817	-0.182 ± 0.15
BAG family molecular chaperone regulator 3 R19F, O95817	-0.743 ± 0.32
SAFB-like transcription modulator E57L, Q9NWH9	-0.049 ± 0.071
SAFB-like transcription modulator P63D, Q9NWH9	-0.553 ± 0.064
SAFB-like transcription modulator I49K, Q9NWH9	-0.401 ± 0.078
SAFB-like transcription modulator K35T, Q9NWH9	-0.474 ± 0.13
SAFB-like transcription modulator R51Y, Q9NWH9	-1.01 ± 0.35
BAG family molecular chaperone regulator 3 P21D, O95817	-0.124 ± 0.16
SAFB-like transcription modulator L39N, Q9NWH9	-0.596 ± 0.12
SAFB-like transcription modulator K21F, Q9NWH9	-0.349 ± 0.077
BAG family molecular chaperone regulator 3 V54L, O95817	0.369 ± 0.097
BAG family molecular chaperone regulator 3 D20K, O95817	-0.429 ± 0.23
BAG family molecular chaperone regulator 3 V54G, O95817	-0.07 ± 0.077
SAFB-like transcription modulator I28E, Q9NWH9	-0.1 ± 0.11
SAFB-like transcription modulator D24M, Q9NWH9	-0.229 ± 0.036
BAG family molecular chaperone regulator 3 D41N, O95817	-0.664 ± 0.12
SAFB-like transcription modulator I22P, Q9NWH9	-0.736 ± 0.089
SAFB-like transcription modulator E67S, Q9NWH9	-0.084 ± 0.04
BAG family molecular chaperone regulator 3 G17T, O95817	0.943 ± 0.083
SAFB-like transcription modulator K35P, Q9NWH9	-0.943 ± 0.14
SAFB-like transcription modulator R51H, Q9NWH9	-0.814 ± 0.27
BAG family molecular chaperone regulator 3 I30N, O95817	-0.166 ± 0.28
